Measurements: publication PMC10997478
Each block holds one substance with its values, some of them ahead of it.

Assays:
[1] = molecular target: neddylated Fluor568CRL2VHL (human) (UniProt Q15843)
[2] = molecular target: NEDD8-Fluor568CRL2FEM1C (human) (UniProt Q15843)
FEM1C (human) = molecular target: T1, FEM1C (human) (UniProt Q96JP0)
T1 sequence: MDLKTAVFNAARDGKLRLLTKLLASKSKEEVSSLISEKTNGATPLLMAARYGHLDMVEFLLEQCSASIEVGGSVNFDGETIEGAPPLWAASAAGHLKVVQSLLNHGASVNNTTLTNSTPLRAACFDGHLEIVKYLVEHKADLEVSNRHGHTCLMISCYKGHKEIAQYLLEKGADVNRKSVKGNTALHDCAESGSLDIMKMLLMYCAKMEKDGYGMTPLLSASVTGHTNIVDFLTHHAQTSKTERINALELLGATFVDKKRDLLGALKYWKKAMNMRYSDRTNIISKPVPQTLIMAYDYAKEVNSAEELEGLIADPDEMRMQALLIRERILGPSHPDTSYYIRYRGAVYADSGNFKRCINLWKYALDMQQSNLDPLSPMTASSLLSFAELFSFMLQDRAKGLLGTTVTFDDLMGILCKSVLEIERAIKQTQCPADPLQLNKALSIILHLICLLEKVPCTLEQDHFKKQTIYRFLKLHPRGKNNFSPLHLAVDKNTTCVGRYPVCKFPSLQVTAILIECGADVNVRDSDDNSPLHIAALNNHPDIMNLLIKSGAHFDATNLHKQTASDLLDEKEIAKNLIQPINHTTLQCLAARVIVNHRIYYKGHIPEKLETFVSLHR

[3] = molecular target: NEDD8-Fluor568CUL2-RBX1 (human) (UniProt Q15843); experiment: FRET or BRET; Fluor647UBE2R2C93K titrated into 25 or 50 nM NEDD8-Fluor568CUL2-RBX1 in solution; 30 mM Tris pH 7.5, 100 mM NaCl, BSA; excitation 575 nm; one-site binding fit
[4] = molecular target: NEDD8-Fluor568CUL2-RBX1 (human) (UniProt Q15843); experiment: FRET or BRET; Fluor647UBE2R2C93K titrated into 25 or 50 nM NEDD8-Fluor568CUL2-RBX1 in solution; 30 mM Tris pH 7.5, final 50 mM NaCl, BSA; excitation 575 nm; one-site binding fit
[5] = molecular target: neddylated ^Fluor568CRL2^FEM1C (human) (UniProt Q13617); experiment: other fluorescence titration; environmental perturbation of Alexa Fluor 568 on neddylated ^Fluor568CRL2^FEM1C (25 or 50 nM); unlabeled UBE2R2 titrated; reaction buffer at ionic strength of 50 mM; one-site model
[6] = molecular target: NEDD8-Fluor568CRL2FEM1C (human) (UniProt Q15843); experiment: other fluorescence titration; environmental perturbation of the Fluor568 dye: unlabelled UBE2R2 or UBE2R2C93K-ubiquitin titrated into 25 or 50 nM NEDD8-Fluor568CRL2FEM1C; 30 mM Tris pH 7.5, final 50 mM NaCl, BSA; one-site binding fit
[7] = molecular target: NEDD8-Fluor568CRL2FEM1C (human) (UniProt Q15843); experiment: other fluorescence titration; environmental perturbation of the Fluor568 dye: unlabelled UBE2R2 titrated into 25 or 50 nM NEDD8-Fluor568CRL2FEM1C; 30 mM Tris pH 7.5, 100 mM NaCl, BSA; one-site binding fit
[8] = molecular target: NEDD8-Fluor568CRL2FEM1C (human) (UniProt Q15843); experiment: other fluorescence titration

Sequence of UBE2D3 (P61077 whole entry): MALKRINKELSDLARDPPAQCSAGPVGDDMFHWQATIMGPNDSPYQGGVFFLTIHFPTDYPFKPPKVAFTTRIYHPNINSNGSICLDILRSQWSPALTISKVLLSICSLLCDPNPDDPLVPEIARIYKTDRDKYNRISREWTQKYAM
Sequence of ARIH1 (Q9Y4X5 whole entry): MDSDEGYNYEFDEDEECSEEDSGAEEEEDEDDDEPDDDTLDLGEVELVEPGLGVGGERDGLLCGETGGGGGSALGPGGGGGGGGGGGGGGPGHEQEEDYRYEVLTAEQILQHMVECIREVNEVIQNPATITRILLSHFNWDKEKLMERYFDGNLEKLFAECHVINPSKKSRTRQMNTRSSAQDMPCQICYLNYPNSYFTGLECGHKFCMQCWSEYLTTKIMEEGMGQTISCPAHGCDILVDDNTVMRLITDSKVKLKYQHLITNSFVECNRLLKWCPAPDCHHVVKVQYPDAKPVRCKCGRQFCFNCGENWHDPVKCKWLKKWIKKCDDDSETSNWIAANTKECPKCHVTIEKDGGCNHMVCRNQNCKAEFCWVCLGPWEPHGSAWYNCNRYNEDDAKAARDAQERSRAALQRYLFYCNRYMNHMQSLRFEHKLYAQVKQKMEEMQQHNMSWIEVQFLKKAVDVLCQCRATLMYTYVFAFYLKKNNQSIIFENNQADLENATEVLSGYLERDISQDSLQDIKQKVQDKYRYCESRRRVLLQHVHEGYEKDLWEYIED
Sequence of UBE2G1 (P62253 whole entry): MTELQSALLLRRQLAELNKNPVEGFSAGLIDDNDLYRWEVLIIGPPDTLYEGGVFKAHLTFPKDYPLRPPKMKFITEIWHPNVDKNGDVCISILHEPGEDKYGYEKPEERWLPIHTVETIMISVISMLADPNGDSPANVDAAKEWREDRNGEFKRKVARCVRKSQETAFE

Table S1: Km of the UCE for the CRL complex; ubiquitin priming of Hif1α peptide, ARIH1 (with UBE2L3, K0 ubiquitin) with unlabelled neddylated CRL2VHL, Michaelis-Menten fit [1]: 0.151 µM
Table S1: Km of the UCE for the CRL complex; ubiquitin priming of Sil1 peptide, ARIH1 (with UBE2L3, K0 ubiquitin) with unlabelled neddylated CRL2FEM1C, Michaelis-Menten fit [2]: 0.143 µM
Substance: ARIH1 (from UniProt Q9Y4X5 1-557) (enzyme)

catalytic efficiency of Sil1 peptide priming with neddylated CRL2^FEM1C, against wild type (FEM1C (human)): 300 fold
Substance: E88R UBE2R2 (from UniProt Q712K3 1-238) (enzyme)

Kd [3]: 1140 nM
Kd [4]: 276 nM
Substance: Fluor647UBE2R2C93K (from UniProt Q712K3 1-238) (enzyme)

Table S1: Km of the UCE for the CRL complex; ubiquitin priming of Hif1α peptide, UBE2D3 (K0 ubiquitin) with unlabelled neddylated CRL2VHL, Michaelis-Menten fit [1]: 6.24 µM
Table S1: Km of the UCE for the CRL complex; ubiquitin priming of Sil1 peptide, UBE2D3 (K0 ubiquitin) with unlabelled neddylated CRL2FEM1C, Michaelis-Menten fit [2]: 0.916 µM
Substance: UBE2D3 (from UniProt P61077 1-147) (enzyme)

Table S1: Km of the UCE for the CRL complex; ubiquitin priming of Sil1 peptide, UBE2G1 (K0 ubiquitin) with unlabelled neddylated CRL2FEM1C, Michaelis-Menten fit [2]: 1.14 µM
Substance: UBE2G1 (from UniProt P62253 1-170) (enzyme)

fold decrease of Kd against neddylated CUL2-RBX1 alone [5]: 7 fold
Substance: UBE2R2 (wild type, unlabeled) (from UniProt Q712K3 1-238) (enzyme)

Kd [6]: 44 nM
Kd [7]: 156 nM
Substance: UBE2R2 (wild-type, unlabeled) (from UniProt Q712K3 1-238) (enzyme)

Kd [8]: 50 nM
Substance: UBE2R2C93K-ubiquitin (from UniProt Q712K3 1-238; P0CG48 1-76) (complex)
